{
  "source": "the supplement of paper PMC10266784",
  "parents": {"B1": {"name": "library; numbered along this chain (parent)", "chain": "MAAAAAAAAEQQSSNGPVKKSMREKAVERRSVNKEHNSNFKAGYIPIDEDRLHKTGLRGRKGNLAICVIILLFILAVINLIITLVIWAVIRIGPNGCDSMEFHESGLLRFKQVSDMGVIHPLYKSTVGGRRNENLVITGNNQPIVFQQGTTKLSVENNKTSITSDIGMQFFDPRTQNILFSTDYETHEFHLPSGVKSLNVQKASTERITSNATSDLNIKVDGRAIVRGNEGVFIMGKTIEFHMGGNMELKAENSIILNGSVMVSTTRLPSSSSGDQLGSGDWVRYKLCMCADGTLFKVQVTSQNMGCQISDNPCGNTH"}},
  "data": [
    {"variants_of": "B1", "assay": "SGCB cell-surface expression functional score (HA stain, bin4 vs bin1, normalised to synonymous) (log10 ratio); higher = more cell-surface SGCB (functional)", "protocol": "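Deep mutational scan of full-length human SGCB (YFP-SGCB-HA, NNN codon sublibraries A-F) delivered by lentivirus at low MOI into ADG-HEK293 cells stably expressing SGCA, SGCD and SGCG. YFP-positive cells were stained for surface HA on unpermeabilized cells and FACS-sorted into bins. The functional score is log10(frequency in high bin 4 / frequency in low bin 1), normalised per chunk so that synonymous variants have mean 0 and SD 0.5. Scores are the median over codons and over duplicate biological replicates; scores below -0.5 are called non-functional. Scale: negative means deleterious.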", "values": [
      {"variant": "MAAAAAAAAEQQSSNGPVKKSMREKAVERRSVNKEHNSNFKAGYIPIDEDRLHKTGLYGRKGNLAICVIILLFILAVINLIITLVIWAVIRIGPNGCDSMEFHESGLLRFKQVSDMGVIHPLYKSTVGGRRNENLVITGNNQPIVFQQGTTKLSVENNKTSITSDIGMQFFDPRTQNILFSTDYETHEFHLPSGVKSLNVQKASTERITSNATSDLNIKVDGRAIVRGNEGVFIMGKTIEFHMGGNMELKAENSIILNGSVMVSTTRLPSSSSGDQLGSGDWVRYKLCMCADGTLFKVQVTSQNMGCQISDNPCGNTH", "note": "[R58Y]", "SGCB cell-surface expression functional score (log10)": 0.71},
      {"variant": "MAAAAAAAAEQQSSNGPVKKSMREKAVERRSVNKEHNSNFKAGYIPIDEDRLHKTGLWGRKGNLAICVIILLFILAVINLIITLVIWAVIRIGPNGCDSMEFHESGLLRFKQVSDMGVIHPLYKSTVGGRRNENLVITGNNQPIVFQQGTTKLSVENNKTSITSDIGMQFFDPRTQNILFSTDYETHEFHLPSGVKSLNVQKASTERITSNATSDLNIKVDGRAIVRGNEGVFIMGKTIEFHMGGNMELKAENSIILNGSVMVSTTRLPSSSSGDQLGSGDWVRYKLCMCADGTLFKVQVTSQNMGCQISDNPCGNTH", "note": "[R58W]", "SGCB cell-surface expression functional score (log10)": -0.26},
      {"variant": "MAAAAAAAAEQQSSNGPVKKSMREKAVERRSVNKEHNSNFKAGYIPIDEDRLHKTGLTGRKGNLAICVIILLFILAVINLIITLVIWAVIRIGPNGCDSMEFHESGLLRFKQVSDMGVIHPLYKSTVGGRRNENLVITGNNQPIVFQQGTTKLSVENNKTSITSDIGMQFFDPRTQNILFSTDYETHEFHLPSGVKSLNVQKASTERITSNATSDLNIKVDGRAIVRGNEGVFIMGKTIEFHMGGNMELKAENSIILNGSVMVSTTRLPSSSSGDQLGSGDWVRYKLCMCADGTLFKVQVTSQNMGCQISDNPCGNTH", "note": "[R58T]", "SGCB cell-surface expression functional score (log10)": 0.24},
      {"variant": "MAAAAAAAAEQQSSNGPVKKSMREKAVERRSVNKEHNSNFKAGYIPIDEDRLHKTGLVGRKGNLAICVIILLFILAVINLIITLVIWAVIRIGPNGCDSMEFHESGLLRFKQVSDMGVIHPLYKSTVGGRRNENLVITGNNQPIVFQQGTTKLSVENNKTSITSDIGMQFFDPRTQNILFSTDYETHEFHLPSGVKSLNVQKASTERITSNATSDLNIKVDGRAIVRGNEGVFIMGKTIEFHMGGNMELKAENSIILNGSVMVSTTRLPSSSSGDQLGSGDWVRYKLCMCADGTLFKVQVTSQNMGCQISDNPCGNTH", "note": "[R58V]", "SGCB cell-surface expression functional score (log10)": -0.04},
      {"variant": "MAAAAAAAAEQQSSNGPVKKSMREKAVERRSVNKEHNSNFKAGYIPIDEDRLHKTGLRFRKGNLAICVIILLFILAVINLIITLVIWAVIRIGPNGCDSMEFHESGLLRFKQVSDMGVIHPLYKSTVGGRRNENLVITGNNQPIVFQQGTTKLSVENNKTSITSDIGMQFFDPRTQNILFSTDYETHEFHLPSGVKSLNVQKASTERITSNATSDLNIKVDGRAIVRGNEGVFIMGKTIEFHMGGNMELKAENSIILNGSVMVSTTRLPSSSSGDQLGSGDWVRYKLCMCADGTLFKVQVTSQNMGCQISDNPCGNTH", "note": "[G59F]", "SGCB cell-surface expression functional score (log10)": 0.13},
      {"variant": "MAAAAAAAAEQQSSNGPVKKSMREKAVERRSVNKEHNSNFKAGYIPIDEDRLHKTGLRARKGNLAICVIILLFILAVINLIITLVIWAVIRIGPNGCDSMEFHESGLLRFKQVSDMGVIHPLYKSTVGGRRNENLVITGNNQPIVFQQGTTKLSVENNKTSITSDIGMQFFDPRTQNILFSTDYETHEFHLPSGVKSLNVQKASTERITSNATSDLNIKVDGRAIVRGNEGVFIMGKTIEFHMGGNMELKAENSIILNGSVMVSTTRLPSSSSGDQLGSGDWVRYKLCMCADGTLFKVQVTSQNMGCQISDNPCGNTH", "note": "[G59A]", "SGCB cell-surface expression functional score (log10)": -0.59},
      {"variant": "MAAAAAAAAEQQSSNGPVKKSMREKAVERRSVNKEHNSNFKAGYIPIDEDRLHKTGLRHRKGNLAICVIILLFILAVINLIITLVIWAVIRIGPNGCDSMEFHESGLLRFKQVSDMGVIHPLYKSTVGGRRNENLVITGNNQPIVFQQGTTKLSVENNKTSITSDIGMQFFDPRTQNILFSTDYETHEFHLPSGVKSLNVQKASTERITSNATSDLNIKVDGRAIVRGNEGVFIMGKTIEFHMGGNMELKAENSIILNGSVMVSTTRLPSSSSGDQLGSGDWVRYKLCMCADGTLFKVQVTSQNMGCQISDNPCGNTH", "note": "[G59H]", "SGCB cell-surface expression functional score (log10)": 0.1},
      {"variant": "MAAAAAAAAEQQSSNGPVKKSMREKAVERRSVNKEHNSNFKAGYIPIDEDRLHKTGLRCRKGNLAICVIILLFILAVINLIITLVIWAVIRIGPNGCDSMEFHESGLLRFKQVSDMGVIHPLYKSTVGGRRNENLVITGNNQPIVFQQGTTKLSVENNKTSITSDIGMQFFDPRTQNILFSTDYETHEFHLPSGVKSLNVQKASTERITSNATSDLNIKVDGRAIVRGNEGVFIMGKTIEFHMGGNMELKAENSIILNGSVMVSTTRLPSSSSGDQLGSGDWVRYKLCMCADGTLFKVQVTSQNMGCQISDNPCGNTH", "note": "[G59C]", "SGCB cell-surface expression functional score (log10)": 0.05},
      {"variant": "MAAAAAAAAEQQSSNGPVKKSMREKAVERRSVNKEHNSNFKAGYIPIDEDRLHKTGLRERKGNLAICVIILLFILAVINLIITLVIWAVIRIGPNGCDSMEFHESGLLRFKQVSDMGVIHPLYKSTVGGRRNENLVITGNNQPIVFQQGTTKLSVENNKTSITSDIGMQFFDPRTQNILFSTDYETHEFHLPSGVKSLNVQKASTERITSNATSDLNIKVDGRAIVRGNEGVFIMGKTIEFHMGGNMELKAENSIILNGSVMVSTTRLPSSSSGDQLGSGDWVRYKLCMCADGTLFKVQVTSQNMGCQISDNPCGNTH", "note": "[G59E]", "SGCB cell-surface expression functional score (log10)": -0.2},
      {"variant": "MAAAAAAAAEQQSSNGPVKKSMREKAVERRSVNKEHNSNFKAGYIPIDEDRLHKTGLRDRKGNLAICVIILLFILAVINLIITLVIWAVIRIGPNGCDSMEFHESGLLRFKQVSDMGVIHPLYKSTVGGRRNENLVITGNNQPIVFQQGTTKLSVENNKTSITSDIGMQFFDPRTQNILFSTDYETHEFHLPSGVKSLNVQKASTERITSNATSDLNIKVDGRAIVRGNEGVFIMGKTIEFHMGGNMELKAENSIILNGSVMVSTTRLPSSSSGDQLGSGDWVRYKLCMCADGTLFKVQVTSQNMGCQISDNPCGNTH", "note": "[G59D]", "SGCB cell-surface expression functional score (log10)": 0.04}
    ]}
  ]
}
